The results in this text go back to US7629135B2, “Toll-like receptor agonists and antagonists and methods of use thereof” (The Board of Trustees of the University of Illinois, priority 2006, dated 2009).

The target in one assay is T1, TLR2:Fc fusion protein (Homo sapiens, UniProt O60603).
T1 construct: measured in an ELISA-like assay using a TLR2 extracellular domain:Fc fragment fusion protein; made in house; host or cells: CHO cells (pFuse-Fc vector, InvivoGen), purified from culture supernatant on protein A
Nature of the assay: SAA-TLR2 interaction, ELISA-like binding assay. Conditions: 0.0625 to 8 μg/ml ligand coated, 2 μg/ml TLR2:Fc. From the text: Another example of a method for screening antagonists that disrupt the SAA/TLR2 interaction involves a binding assay that includes a TLR2 ectodomain (extracellular domain) fused to an Fc fragment of immunoglobulin (TLR2:Fc), such as the assay used in FIG. 9B. This assay is typically used as a follow-up or secondary assay to that assay described above. In other words, any compounds collected from the assay described above are subjected to the TLR2:Fc-based binding assay to confirm that the antagonistic effect is on the disruption of SAA-TLR2 binding. This method is generally carried out as follows and is also described in the Examples. A TLR2:Fc fusion protein is generated such that the N-terminal 588 amino acids of human TLR2 are fused in frame to the Fc portion of mouse IgG2a. The cDNA encoding for the resulting chimeric protein is cloned in pFuse-Fc vector (InvivoGen), and stably transfected into CHO cells. […] Absorbance at 450 nm is measured on a SpectraMax 340 plate reader (Molecular Devices).
Assays for SAA-TLR2 interaction: The TL2:Fc fusion protein was generated such that the N-terminal 588 amino acids of human TLR2 protein were fused in frame with the Fc portion of mouse IgG2a. […] Absorbance at 450 nm was measured on a SpectraMax 340 plate reader (Molecular Devices). […]
(In general: In an ELISA, binding on a coated surface is turned into a signal by an enzyme label.)

The target in assay [1] is T2, TLR2 (Homo sapiens, UniProt O60603).
T2 construct: host or cells: HeLa
Nature of the assay: NF-κB luciferase reporter assay in TLR2-HeLa cells. The class given is cell-based. On the procedure: (§1) To determine whether TLR2 is a receptor for SAA, a TLR2-expressing cell line was prepared in HeLa cells, which contain very little endogenous TLR2 transcript (FIG. 6A, upper panel). […] TLR2 is a class I transmembrane protein that contains an extracellular ligand binding domain (ectodomain), a transmembrane domain and a cytoplasmic domain consisting of the Toll/IL-1/receptor/Resistance (TIR) motif. Studies have shown that TLR2 forms heterodimers with TLR1 and TLR6 (Ozinsky et al., 2000), which display different preference for TLR2 ligands (Hoebe et al., 2005; Takeuchi et al., 2002). The C-terminal TIR domain is conserved among TLRs and responsible for TLR signaling (O'Neill and Bowie, 2007; Takeda and Akira, 2004). To assess the relative contributions of TLRs to SAA signaling, TLR1, TLR2, TLR4 and TLR6 were overexpressed in the TLR2-HeLa cells, and their effects on SAA-induced NF-κB luciferase reporter activity were determined. […] In addition, the TIR domain deletion mutants (ΔTIR) of these receptors were expressed, which are negative regulators of TLR signaling.
(§2) Methods for the generation of TLR2-HeLa stable cell line: HeLa cells stably transfected with human TLR2 gene were generated by transfecting HeLa cells with the expression construct pUNO-hTLR2 (InvivoGen, San Diego, Calif.; GenBank accession number for human TLR2 cDNA is NM_003264) and selected with Blasticidin at concentration of 20 μg/ml for 2 weeks. The control HeLa cells were generated at the same time by transfecting with empty pUNO vector. Cells were maintained in DMEM supplemented with 10% heat-inactivated FB S, 2 mM L-glutamine, 100 IU/ml penicillin, and 50 μg/ml streptomycin. Expression of TLR2 was confirmed using an anti-TLR2 antibody (eBioscience) and FTTC-conjugated anti-mouse antibody, on a FACSCalibur flow cytometer (Becton Dickinson). The TLR2-HeLa and control cells were then co-transfected with 5xNF-κB reporter plasmids (pNF-κB-Luc, Stratagene, Cedar Creek, Tex., catalog no. 219077) and empty SFFV vector bearing a neomycin resistant gene. The TLR2-HeLa/NF-κB reporting cells were obtained after selecting with G418 at concentration of […] for 2-3 weeks. Cells (5′10^5/ml) were grown in DMEM supplemented with 10% heat-inactivated FBS, 2 mM L-glutamine, 100 IU/ml penicillin, and […] streptomycin.
(§3) Methods for using HeLa cells in reporter assay: Mock-transfected HeLa and TLR2-HeLa cells were maintained at ˜5×10^5 cells/well in six-well plates, transfected with plasmid expression vectors coding for a 3×κB-directed luciferase reporter, pCMVβ vector DNA (Promega) and/or other expression constructs as indicated. Total DNA concentration was adjusted to 1 μg/sample by addition of empty vector DNA. Transient transfection was performed using LipofectAmine Plus reagent (Invitrogen). […]
A general note: A reporter such as luciferase makes a cellular process visible.

Assay [2] concerns TLR2. Put plainly: NF-κB luciferase reporter assay in TLR2-HeLa cells. The class given is cell-based, human. Conditions: TLR2-HeLa cells, p<0.01. On the procedure:
as §1, §2, §3

T2 sequence (O60603 21-784): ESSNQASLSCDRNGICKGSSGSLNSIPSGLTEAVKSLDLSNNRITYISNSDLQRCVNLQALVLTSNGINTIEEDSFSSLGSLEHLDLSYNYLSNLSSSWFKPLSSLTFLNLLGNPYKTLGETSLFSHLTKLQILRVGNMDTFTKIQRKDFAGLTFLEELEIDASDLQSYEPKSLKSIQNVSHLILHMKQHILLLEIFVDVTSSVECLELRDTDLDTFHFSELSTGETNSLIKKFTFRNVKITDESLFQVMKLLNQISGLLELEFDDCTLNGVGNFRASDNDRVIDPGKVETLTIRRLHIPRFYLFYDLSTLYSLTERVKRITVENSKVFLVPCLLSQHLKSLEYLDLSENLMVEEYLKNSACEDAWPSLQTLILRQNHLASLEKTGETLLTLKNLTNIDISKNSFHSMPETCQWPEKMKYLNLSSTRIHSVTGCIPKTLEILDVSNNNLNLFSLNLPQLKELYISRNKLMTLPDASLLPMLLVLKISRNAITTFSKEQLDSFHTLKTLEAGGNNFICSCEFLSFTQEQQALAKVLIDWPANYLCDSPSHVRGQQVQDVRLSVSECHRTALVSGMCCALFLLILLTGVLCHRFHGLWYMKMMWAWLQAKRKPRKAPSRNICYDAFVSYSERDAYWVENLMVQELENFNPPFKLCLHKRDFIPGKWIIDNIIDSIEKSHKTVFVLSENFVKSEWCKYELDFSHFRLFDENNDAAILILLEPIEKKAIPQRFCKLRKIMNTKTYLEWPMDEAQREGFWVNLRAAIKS
T2 sequence (Q15399 25-786 partner): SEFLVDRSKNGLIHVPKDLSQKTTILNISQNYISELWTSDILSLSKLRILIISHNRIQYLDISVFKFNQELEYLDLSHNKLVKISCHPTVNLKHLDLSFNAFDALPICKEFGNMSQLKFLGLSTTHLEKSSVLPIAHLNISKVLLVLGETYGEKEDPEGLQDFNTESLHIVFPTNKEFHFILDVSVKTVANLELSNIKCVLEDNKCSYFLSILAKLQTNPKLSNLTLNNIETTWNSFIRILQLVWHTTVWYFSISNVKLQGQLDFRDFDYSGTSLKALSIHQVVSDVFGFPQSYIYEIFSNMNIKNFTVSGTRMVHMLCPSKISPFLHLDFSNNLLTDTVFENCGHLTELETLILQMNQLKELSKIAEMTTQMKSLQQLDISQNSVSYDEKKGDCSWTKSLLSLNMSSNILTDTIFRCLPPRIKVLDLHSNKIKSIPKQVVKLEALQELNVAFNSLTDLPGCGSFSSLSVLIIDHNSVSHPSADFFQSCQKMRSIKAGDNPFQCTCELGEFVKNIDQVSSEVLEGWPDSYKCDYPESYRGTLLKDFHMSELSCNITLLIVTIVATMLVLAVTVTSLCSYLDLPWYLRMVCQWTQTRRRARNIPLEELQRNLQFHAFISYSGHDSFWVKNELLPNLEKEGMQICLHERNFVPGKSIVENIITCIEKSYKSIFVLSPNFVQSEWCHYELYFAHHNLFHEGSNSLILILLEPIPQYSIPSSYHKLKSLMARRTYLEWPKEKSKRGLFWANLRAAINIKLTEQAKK
T1 sequence (O60603 21-588 limits assumed): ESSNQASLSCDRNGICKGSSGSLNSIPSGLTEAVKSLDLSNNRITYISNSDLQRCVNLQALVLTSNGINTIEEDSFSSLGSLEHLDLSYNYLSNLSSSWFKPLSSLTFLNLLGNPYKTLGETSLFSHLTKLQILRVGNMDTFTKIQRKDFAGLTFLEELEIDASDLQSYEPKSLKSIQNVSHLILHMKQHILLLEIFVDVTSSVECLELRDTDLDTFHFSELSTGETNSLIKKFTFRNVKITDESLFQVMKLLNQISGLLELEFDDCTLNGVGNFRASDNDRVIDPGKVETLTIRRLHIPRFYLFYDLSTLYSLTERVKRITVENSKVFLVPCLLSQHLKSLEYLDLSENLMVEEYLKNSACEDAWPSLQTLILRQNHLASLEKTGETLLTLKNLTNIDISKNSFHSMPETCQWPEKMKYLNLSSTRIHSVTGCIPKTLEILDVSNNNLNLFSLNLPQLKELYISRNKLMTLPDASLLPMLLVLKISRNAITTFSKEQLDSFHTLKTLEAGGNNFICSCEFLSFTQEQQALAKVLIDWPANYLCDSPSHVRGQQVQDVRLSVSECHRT

B1: SAA: Recombinant human SAA purchased from PeproTech; major acute-phase protein of 104 amino acids (protein, UniProt P0DJI8 19-122, looked up)
Serum amyloid A-1 protein: RSFFSFLGEAFDGARDMWRAYSDMREANYIGSDKYFHARGNYDAAKRGPGGAWAAEVITDARENIQRFFGHGAEDSLADQAANEWGRSGKDPNHFRPAGLPEKY
On to B1, for which the “binding to TLR2:Fc fusion protein” value in the assay with TLR2:Fc fusion protein is recorded as “dose-dependent increase in SAA binding”. Moreover, the NF-κB luciferase activity entry with TLR2 [1] (SAA-stimulated TLR2-HeLa vs mock-transfected HeLa cells, p<0.01) is on record as “significantly increased NF-κB luciferase activity”. For the same molecule, in the assay with TLR2 [1] (TLR2-HeLa cells overexpressing TLR1), the “SAA-induced NF-κB luciferase activity with exogenous expression of TLR1” value is “potentiated SAA-induced NF-κB luciferase activity”. Further, in the assay with TLR2 [2], the “SAA-induced NF-κB luciferase activity with ΔTIR mutants of TLR1, TLR2 and TLR6” value is “significant inhibition”.
